Entries after “also recorded” stand apart in the source; their conditions may differ.
B1: Lecanemabbs: humanized monoclonal, biosimilar of Lecanemab, Proteogenix (#PX-TA1746) and BioXCell (#BXC-SIM0032) (antibody, chains of the INN, looked up, V domains shown)
VH: EVQLVESGGGLVQPGGSLRLSCSASGFTFSSFGMHWVRQAPGKGLEWVAYISSGSSTIYYGDTVKGRFTISRDNAKNSLFLQMSSLRAEDTAVYYCAREGGYYYGRSYYTMDYWGQGTTVTVSS
VL: DVVMTQSPLSLPVTPGAPASISCRSSQSIVHSNGNTYLEWYLQKPGQSPKLLIYKVSNRFSGVPDRFSGSGSGTDFTLRISRVEAEDVGIYYCFQGSHVPPTFGPGTKLEIK
modifications: biosimilar

How the values were obtained:
[1] = system: CAA fibrils; settings: ref [38],[47]; cited from earlier work
Text: Despite extensive structural, genetic, and pre-clinical investigations, clinical trials of Aβ antibodies have yielded ambiguous outcomes. Aβ antibody binding to cerebral amyloid angiopathy (CAA) has been hypothesized to correlate with the frequency of amyloid-related imaging abnormalities with edema (ARIA-E) observed in patients treated with Aβ-based immunotherapies.

[2] = system: Aβ; settings: ref [47],[64],[57],[14]; cited from earlier work
[3] = system: AβpE3-x; assay: PTM-Aβ microarray, pE3; assay type: binding, human; settings: Donanemabbs 0,0012μg/mL, 2–48, Aβ-pE3, IC16 […], vs Aβ3-x with non-cyclized Glu
Text: Specific PTMs might be associated with different stages of AD progression and severity, offering potential biomarkers for diagnosis and prognosis. Targeting PTMs represents a potential therapeutic strategy to prevent Aβ aggregation and neurotoxicity, thereby slowing disease progression. […] Therefore, a selected group of PTM-carrying Aβ peptides (PTM-Aβ) were incorporated into the Aβ chip to explore the potential binding preference of selected Aβ-Abs, under optimized concentrations (Figure 3). The antibodies were tested with both PTM-Aβ and the corresponding unmodified variants to provide a head-to-head comparison. This screening was performed in the presence of Aβ phosphorylated at positions Ser(8) or Ser(26), N-terminal pE at position 3, racemization/isomerization of Asp at position 1, and unmodified N-terminal variants. The dataset is divided into sections (Figure 3 a–f) for enhanced visualization, where each antibody was screened simultaneously against all peptides to locate their epitope preferences. […] A set of antibodies without reported PTM preference was applied here as controls (refer to Table 1), namely 11H3, 101–1-1, IC16, 82E1 and 3D6.
Figure 3. […] Blue and red shades indicate the binding strength over the related arrayed […] modified peptide shown on top and cognate anti-Aβ antibody to the left. […]

[4] = system: amyloid precursor protein (APP770) residues 649–722; assay: Peptide microarray epitope pre-screening (overlapping 15-mers); assay type: binding, human; settings: 0.5–1 μg/mL antibody; for Array: epitope identified in this study on microarrays: Aβ residue numbers, 15-mer peptides overlapping by 14AAs on cellulose conjugates, chemiluminescence
Method: Information regarding binding epitopes and /or immunogens for most of the tested Aβ-Abs has been published and is summarized in Table 1. However, the binding epitope information was derived from varying methodologies. To provide an initial side-by-side comparison we pre-screened all of the listed Aβ-Abs in array format using copies of peptide libraries and standard antibody concentrations of 0.5–1 μg/mL (Figure 1a). The library comprised the amyloid precursor protein (APP770) residues 649–722, corresponding to the canonical Aβ1–42 amino acid sequence with additional 23 amino terminal and 9 carboxy terminal residues. […] For optimal signal to noise ratios and ideal selectivity profiles on the microarrays, the Aβ-Ab concentrations were adjusted for 3D6, 82E1, 11H3, 80C2 and 7H3D6 (Figure 1 – figure- supplement 1) and (Appendix 1–7). […] Specifically, Donanemabbs, 2–48 and Aβ-pE3 were raised against AβpE3-x (Table 1) and were expected to show preference for Aβ peptides starting with a pE(3).
Figure 1. Microarray workflow and Aβ-Ab epitope pre-screening. (a) Schematic of the microarray workflow. The library comprised the amyloid precursor protein (APP) residues 649–722 (APP770 numbering), corresponding to Aβ residues −23 to 51, as a library of 15-mer peptides overlapping by 14AAs, copied in dozens, and probed for Aβ-Abs binding followed by analysis in MARTin. (b) The epitope screening binding data are summarized as a heatmap. Blue and red shades indicate the relative binding strength of the related arrayed peptides to the left and cognate Aβ-Ab on top. The blue – red scale is visualizing the normalized binding intensity for each antibody individually. The applied antibody concentrations ranged between 0.5–1 μg/mL.
The μSPOT assay was performed as previously described. […] Peptide arrays were synthesized using MultiPep RSi robot (CEM GmbH, Kamp-Lintford, Germany) on cellulose discs containing Fmoc-β-Ala linkers. Natural amino acid building blocks were purchased from IRIS (IRIS Biotech GmbH, Marktredwitz, Germany). Special building blocks employed in this study such as isomers, stereoisomers, phosphorylation and pyroglutamination […] modifications are listed here: Fmoc-L-Ser(PO(OBzl)OH)-OH (Iris – FAA1423), L-Pyroglutamic acid pentachlorophenyl ester (Novabiochem - 8.54203), Fmoc-L-Asp-OtBu (Iris – FAA1356), Fmoc-D-Asp-OtBu (Carbosolutions – CC05095) and Fmoc-D-Asp(tBu)-OH (Iris – FAA1309). Synthesis was carried out by deprotecting the Fmoc-group using 20% piperidine in dimethylformamide (DMF). Peptide chains were elongated using a coupling solution consisting of amino acids (0.5M) with oxyma (1M) and DIC (1M) in DMF (1:1:1). Coupling steps were carried out 3 times (30min), followed by capping (4% acetic anhydride in DMF). Discs were transferred into 96 deep-well plates for the work-up.

[5] = system: synthetic Aβ peptide variants; assay: Capillary isoelectric focusing (CIEF) immunoassay; assay type: binding; settings: Peggy Sue, chemiluminescence
Method: Automated capillary isoelectric focusing immunoassays were performed with a Peggy-Sue system (ProteinSimple,San Jose, California, USA), essentially as previously described and [53].
In brief, synthetic Aβ peptide variants were separated by isoelectric focusing in microcapillaries followed by photochemical immobilization to the inner capillary walls and probing with the primary antibodies for 120 min. After 2 washes, the horseradish peroxidase conjugated secondary antibodies were loaded and incubated for 60 min. After two washing steps, a luminol/peroxide mix was loaded, and chemiluminescent signals were recorded. The data was analyzed with the Compass for SW software. The following secondary antibodies were used: Anti-human IgG Secondary HRP antibody (Protein Simple, catalog number 043–491), Goat-Anti-Mouse-HRP Secondary Antibody ProteinSimple, catalog number 040–655) and Peroxidase-conjugated Affini Pure Donkey Anti-Human IgG (H+L) (1:100 dilution) (Jackson ImmunoResearch Laboratories Inc., West Grove, PA, code number 709–035-149).

[6] = system: synthetic Aβ peptides; assay: Peptide Bicine-Tris SDS-PAGE/Western blot; assay type: binding; settings: PVDF, 50 ng per peptide, 0.5 μg/mL antibody
[7] = system: Aβ1–42 monomer, oligomer and fibril preparations; AβpE3–40; assay: Bistris-SDS gradient PAGE/Western blot; assay type: binding; settings: 4–12% Bistris SDS-PAGE/Western blot
Method: No SPR-487B) (StressMarq biosciences, Victoria, BC, Canada). The samples for electrophoresis were prepared (starting from stock solutions) with final concentrations of 0.1 μg/μL) in LDS sample buffer (247.5 mM Tris-HCl, pH 8.5, 2% (w/v) lithium dodecyl sulfate (LDS), 10% (v/v) glycerol, 0.5 mM EDTA, 0.22 mM Brilliant Blue G250, 0.175 mM Phenol Red) and denatured by heating at 70°C for 10 min. […] The prechilled transfer buffer contained 25 mM Tris, 192 mM glycine, 20% (v/v) methanol and 0.0375 % Tween-20. After blotting, the membrane was washed for 10 min at room temperature in Tris-buffered saline (TBS) followed by blocking for 30 min with 5% powdered milk in TBS containing 0.1% Tween-20 (TBS-T). The blots were then incubated with primary antibodies in 5% milk in TBS-T over night at 4°C and washed 3 × for 10 min with TBS-T at room temperature. […] After 1 h incubation with the secondary antibodies, the blots were washed 3 × for 10 min with TBS-T and incubated for 5 min with ECL-Prime Western Blotting Detection Reagent (Cytiva Amersham, Little Chalfont, England). Images were recorded on a Vilber-Loumart Fusion SL blot imager. […] That way, the 4G8 reprobing signals were essentially added on top of the initial signals and background artifacts.

[8] = system: endogenous soluble Aβ in pooled human CSF; assay: IP-MS from pooled human CSF; assay type: binding; settings: 250 μL pooled human CSF, CHCA matrix; two replicate measurements each from two independent immunoprecipitations
[9] = system: Aβ vascular and parenchymal deposits in AD brain sections; assay: Immunohistochemistry on AD brain tissue with antibody pre-adsorption; set-up: species or system human
Method: Immunohistochemistry was performed on 4-μm paraffin sections. In brief, brain sections were deparaffinized in Roticlear (Carl Roth, Karlsruhe, Germany) and rehydrated in a descending series of ethanol. Activity of endogenous peroxidases was blocked by incubation in 0.3% H2O2 in PBS for 30 min. […] Antibodies and peptides were incubated on a rotator for 3 h at room temperature and reaction tubes were centrifuged at 13000 rpm for 5 min at the end of the incubation period. Control conditions included antibodies in 0.01 M PBS including 10% FCS without synthetic peptides. Adjacent paraffin-embedded sections from a human AD case were incubated overnight with the supernatants and sections were washed with 0.01 M PBS including 0.1 % Tergitol. For detection, biotinylated anti-human antibodies (6 μg/ml, Jackson ImmunoResearch, West Grove, Pennsylvania, USA #109-065-003) were used and staining was visualized with the ABC method with a Vectastain kit (Vector Laboratories, Newark, California, USA), diaminobenzidine as a chromogen and counterstaining with hematoxylin.

[10] = Lecanemabbs #BXC-SIM0032, 0.06 μg with 0.25 μg peptide

Row | Molecule | binding to CAA fibrils [1] | reported selectivity for modified Aβ [2] | selectivity for / binding to AβpE3-x [3] | Array: epitope identified in this study on microarrays [4] | binding in epitope pre-screening ([4]; unmodified Aβ-related 15-mers, generic pre-screening conditions) | Aβ variants detected on CIEF-immunoassay [5] | Aβ variants detected on Bicine-Tris SDS-PAGE/Western blot [6] | preference for Aβ1–42 aggregation state [7] | immunoprecipitation of endogenous Aβ from CSF [8] | IHC immunoreactivity after pre-adsorption with Aβ1–42 fibrils ([9]; Aducanumabbs 0.5 μg with 5 μg fibrils, Lecanemabbs (PX-TA1746) 0.06 μg with 0.25 μg, human AD brain, antibody for IHC: Aducanumabbs 0.5 μg/μl (so in the source)) | IHC immunoreactivity after pre-adsorption with Aβ1–42 monomers ([9]; Aducanumabbs 0.5 μg with 10 μg monomers, Lecanemabbs (PX-TA1746) 0.06 μg with 0.25 μg, human AD brain) | IHC blocking by Aβ1–16 (BioXCell lot) [9, 10] | IHC blocking by Aβ1–34 (BioXCell lot) [9, 10] | IHC blocking by Aβ1–38 (BioXCell lot) [9, 10] | IHC blocking by Aβ1–42 monomers (BioXCell lot) [9, 10] | IHC immunoreactivity after pre-adsorption with Aβ1–42 oligomers ([9]; Lecanemabbs (PX-TA1746) 0.06 μg with 0.25 μg oligomers, human AD brain)
1 | Donanemab: Eli Lilly's Donanemab, approved in the US as Kisunla [reference compound] | binds to CAA fibrils in proportion to the amount of pyroglutamate-modified Aβ they present | selective for AβpE3; also recorded: known to recognize Aβ starting with cyclized pE3 | cyclized AβpE3-x as the dominant binding determinant | 3–10 | produced detectable signals in this pre-screening with unmodified Aβ-related peptides |  |  |  |  |  |  |  |  |  |  | 
2 | B1 |  |  |  | 3–7 |  | recognized Aβ1–40, Aβ1–42, Aβ3–40 (pI approximately 5.97) Aβ-3–40 (aka. APP669–711),phosphorylated pSer8-Aβ1–40; also recorded: detected Aβ1–40 (pI 5.31), Aβ2–40 (pI 5.98), Aβ3–40 (pI 5.97), Aβ−3–40 (pI 6.04), Aβ1–42 (pI approx. 5.3) and pSer8Aβ1–40 (amide) (pI 5.13–5.14) | recognized Aβ1–40, Aβ1–42, Aβ3–40 (pI approximately 5.97) Aβ-3–40 (aka. APP669–711),phosphorylated pSer8-Aβ1–40 | a certain, but not absolute preference for aggregated forms of Aβ1–42 over monomeric and low-n oligomeric forms | immunoprecipitated authentic biological Aβ peptides from pooled human CSF; also recorded: Aβ1–40, Aβ1–38, Aβ42, Aβ1–37 and Aβ1–39 were detected, albeit with relatively low signal intensities | efficiently blocked | efficiently blocked | did not | did not | did not | completely blocked Lecanemabbs binding | efficiently blocked

From article doi:10.1101/2025.02.26.640323, “Aggregation-Dependent Epitope Sequence and Modification Fingerprints of Anti-Aβ Antibodies” (bioRxiv, 2025)
